Measured values from patent US20030170807A1 (Johns Hopkins, published 2003).
Blank lines part the entries; values can stand above or below the molecule they belong to.

Key:
[1] = biological target: mGluR of mouse cerebellar Purkinje cells (mouse) (UniProt P97772); experiment: cell-based or functional assay
[2] = biological target: T1, GKAP 1, native, from rat brain extracts (rat, UniProt P97836 1-992); experiment: GST pull-down from rat brain extracts
T1 construct: mature
T1 sequence (looked up): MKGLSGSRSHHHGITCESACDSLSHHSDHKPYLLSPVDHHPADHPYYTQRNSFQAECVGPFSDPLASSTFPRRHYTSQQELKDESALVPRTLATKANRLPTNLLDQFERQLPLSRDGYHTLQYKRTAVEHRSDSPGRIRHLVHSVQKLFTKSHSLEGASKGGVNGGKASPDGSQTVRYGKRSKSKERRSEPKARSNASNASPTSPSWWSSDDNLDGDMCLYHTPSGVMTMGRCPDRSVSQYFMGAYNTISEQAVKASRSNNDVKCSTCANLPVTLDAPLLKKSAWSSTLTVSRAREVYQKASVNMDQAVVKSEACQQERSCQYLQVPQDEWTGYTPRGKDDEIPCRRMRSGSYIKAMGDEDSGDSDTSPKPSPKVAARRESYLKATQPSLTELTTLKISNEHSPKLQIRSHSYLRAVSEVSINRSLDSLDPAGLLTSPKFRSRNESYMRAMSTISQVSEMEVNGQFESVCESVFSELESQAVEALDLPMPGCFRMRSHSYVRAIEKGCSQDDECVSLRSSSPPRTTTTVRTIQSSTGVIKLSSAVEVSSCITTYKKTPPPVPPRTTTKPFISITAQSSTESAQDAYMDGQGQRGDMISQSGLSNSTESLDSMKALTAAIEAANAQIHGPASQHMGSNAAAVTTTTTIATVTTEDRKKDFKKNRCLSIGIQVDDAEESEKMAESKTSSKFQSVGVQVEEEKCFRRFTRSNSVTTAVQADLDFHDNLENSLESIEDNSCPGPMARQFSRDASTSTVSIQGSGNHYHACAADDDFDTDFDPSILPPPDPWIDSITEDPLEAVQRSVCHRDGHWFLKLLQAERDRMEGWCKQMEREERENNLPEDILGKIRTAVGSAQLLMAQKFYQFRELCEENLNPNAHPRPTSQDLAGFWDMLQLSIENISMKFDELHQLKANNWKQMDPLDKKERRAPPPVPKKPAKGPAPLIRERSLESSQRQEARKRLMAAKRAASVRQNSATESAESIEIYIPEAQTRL

Sequence of mGluR of mouse cerebellar Purkinje cells (mouse) (P97772 21-1199): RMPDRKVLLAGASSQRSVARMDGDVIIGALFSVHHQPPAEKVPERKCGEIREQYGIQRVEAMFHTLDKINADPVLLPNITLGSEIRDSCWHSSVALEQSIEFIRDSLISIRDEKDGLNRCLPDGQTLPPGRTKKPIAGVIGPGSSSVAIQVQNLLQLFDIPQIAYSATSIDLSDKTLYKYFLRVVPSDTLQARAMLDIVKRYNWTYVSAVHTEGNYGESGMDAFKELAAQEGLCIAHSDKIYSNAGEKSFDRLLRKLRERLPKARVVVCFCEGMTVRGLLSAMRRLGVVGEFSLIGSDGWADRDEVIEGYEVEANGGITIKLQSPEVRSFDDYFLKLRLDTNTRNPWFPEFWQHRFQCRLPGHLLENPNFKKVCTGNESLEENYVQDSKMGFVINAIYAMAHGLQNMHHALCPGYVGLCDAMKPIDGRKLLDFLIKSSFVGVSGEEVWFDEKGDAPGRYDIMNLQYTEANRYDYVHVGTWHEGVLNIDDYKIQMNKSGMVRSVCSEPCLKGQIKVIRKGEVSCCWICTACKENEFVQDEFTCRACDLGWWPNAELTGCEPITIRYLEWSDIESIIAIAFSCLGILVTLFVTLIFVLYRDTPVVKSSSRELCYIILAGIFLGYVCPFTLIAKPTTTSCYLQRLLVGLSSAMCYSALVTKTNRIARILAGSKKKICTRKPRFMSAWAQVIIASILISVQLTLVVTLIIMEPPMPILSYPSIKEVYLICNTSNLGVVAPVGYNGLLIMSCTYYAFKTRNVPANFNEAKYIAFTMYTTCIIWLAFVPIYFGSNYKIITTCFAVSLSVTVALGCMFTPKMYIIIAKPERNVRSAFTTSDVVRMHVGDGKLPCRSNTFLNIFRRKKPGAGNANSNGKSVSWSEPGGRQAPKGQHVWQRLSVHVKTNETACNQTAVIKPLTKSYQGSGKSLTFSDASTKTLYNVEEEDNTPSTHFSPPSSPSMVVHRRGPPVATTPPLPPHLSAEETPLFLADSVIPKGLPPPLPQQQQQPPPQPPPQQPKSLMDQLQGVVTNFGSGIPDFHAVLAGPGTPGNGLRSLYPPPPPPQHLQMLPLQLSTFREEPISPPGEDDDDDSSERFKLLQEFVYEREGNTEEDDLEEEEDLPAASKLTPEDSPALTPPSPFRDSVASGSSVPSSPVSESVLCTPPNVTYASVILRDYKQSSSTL

- mGluR-evoked Ca+2 response, amplitude [1]: 170 nM
- mGluR-evoked Ca+2 response, latency [1]: 10.5 s
Molecule: IEG form of Homer 1: 186 amino acid amino-terminal fragment of Homer 1b (pRK5 Homer 1 IEG) (from UniProt Q9Z2Y3 1-198)

- binding result [2]: no binding
B1: GST-GKAP(carboxy-terminal): carboxy-terminal 76 amino acids of GKAP1a fused to GST (other, UniProt P97836-5 591-666, looked up)
chain: MDPLDKKERRAPPPVPKKPAKGPAPLIRERSLESSQRQEARKRLMAAKRAASVRQNSATESAESIEIYIPEAQTRL
notes: domain: carboxy-terminal 76 amino acids; not shown: glutathione-S-transferase, fusion partner
